Data published in the supplement of paper PMC12042874.
± gives the uncertainty stated by the source.

Experiment: amyloid nucleation score (Sup35N fusion, yeast selection) (log enrichment); library NNK3; higher = more nucleation; inactive = no reads after selection
Summary of the method: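 Yeast lacking psi expressed peptides of 20 random codons fused to Sup35N, received 100 μM copper sulfate for 24 hours, and were then grown for 7 days at 30°C on medium lacking adenine and uracil. Illumina sequencing of input and output plasmid inserts provided the reads. Nucleation scores are DiMSum log enrichments of output over input, centred on the mode of non-aggregating sequences. Any sequence with under 100 input reads was excluded.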

Row | Substance | amyloid nucleation score
1 | NMQLVYDRMDE | inactive
2 | NMRRRYC | inactive
3 | NMSTAWRRGNPVCTDSKYRV | inactive
4 | NMTTLVKTMEDNMDSCISGV | 1.12 ± 0.11
5 | NMTVSHWGLTMSRL | 1.26 ± 0.11
6 | NMVTYTMIWLWMSMAAPS | inactive
7 | NNCVITFFEFSTWGCLYLKF | inactive
8 | NNFNISLRVRRSFKKCFFVR | 1.85 ± 0.077
9 | NNFTVAWFYRHGSLSISFGY | inactive
10 | NNIVNSLYFEMGYGVN | inactive
11 | NNRCNKFPGYTL | inactive
12 | NNRLMYTSHISHACSYQMLK | inactive
13 | NNTEHS | inactive
14 | NNTVDDSVFWNELDGHTWLV | inactive
15 | NNYSRVLSSIIEGIVIR | inactive
16 | NNYTSPMHRFRSNLFHCVSA | inactive
17 | NPKSSPVVTFWGTGYFSAGV | inactive
18 | NPLYVFDRI | -0.71 ± 0.53
19 | NQCAS | inactive
20 | NRFVIIFSCLCFCPQSDMEL | 2.37 ± 0.083
21 | NRIFIGQVFRIIGPWLGMYH | inactive
22 | NRKGIR | -0.009 ± 0.58
23 | NRKNTKHLIFFYVFVT | inactive

Row | Substance | amyloid nucleation score
24 | NRQMLYILEINSIIFIQSFC | 0.903 ± 0.16
25 | NRRYFVELCGGNFM | inactive
26 | NRVED | inactive
27 | NRVFPANLSSLSSCSTFTLW | inactive
28 | NRVLSVFDLFLRVAFASRFR | inactive
29 | NRVPQWRRRQVGGD | inactive
30 | NRYGGSAQGHPMWVTTSREW | inactive
31 | NRYLVVLRSCS | inactive
32 | NSCIFQTRMSGSYETVYHAP | 0.054 ± 0.45
33 | NSDATIWYFHRCSRLYVAGM | inactive
34 | NSFVVTCLVSVGKRGKSRWL | 1.25 ± 0.13
35 | NSIILFWRLSRGVYSFLPHK | inactive
36 | NSLCKLGFFSMVKYV | inactive
37 | NSNIQKHICVQFVKRWLEPC | inactive
38 | NSNSGFLVSFLWLSFWNSIS | inactive
39 | NSSLY | inactive
40 | NSSNII | 2.56 ± 0.067
41 | NSSSNE | 1.01 ± 0.22
42 | NSVDP | inactive
43 | NSVHREECFLITF | inactive
44 | NTFCIFALTYIQWVPYLAMF | inactive
45 | NTGLAFTSYMTMDLLCISGA | inactive
46 | NTNRSLENDCIRALRQCGLV | inactive

Row | Substance | amyloid nucleation score
47 | NTPFFGTGLSQTIAVKHLQM | inactive
48 | NTPRRLHSYLFSTLWY | inactive
49 | NTQNLNRVVCLGL | inactive
50 | NTRKHFVSWCAHPDEDSSFM | inactive
51 | NTRREDSGWTNLCFWCARN | 2.01 ± 0.052
52 | NTRTLSMYAVHGNIRVFMAE | 0.917 ± 0.17
53 | NTSDPSNRFLPFLYVRLHSS | inactive
54 | NTSGKCVKIDVRLNTVTS | inactive
55 | NTSLRYIKLFSVNDALPLP | inactive
56 | NTTHNVNV | inactive
57 | NVFMTWYTARGFMCYPSWDR | 0.324 ± 0.43
58 | NVGNRCYWWVLMARLLSIFR | inactive
59 | NVIGPSNRVTSWMVKSMQMY | inactive
60 | NVIYFHTQGMY | inactive
61 | NVLLFLIVKHSVGIFVV | inactive
62 | NVLVN | inactive
63 | NVMDCSYITNVNIYSHHWDY | 2.1 ± 0.055
64 | NVNILFDNLIRDWFVSMWED | inactive
65 | NVNMYIDFVLIDMNWQNCTQ | 3.05 ± 0.062
66 | NVPKPGTFFCDKCYYGCVWD | 0.642 ± 0.48
67 | NVRLYHFSGET | 0.031 ± 0.41
68 | NVRVGILQR | inactive
69 | NVSFILLYGQCSECTQDA | 2.03 ± 0.067

Row | Substance | amyloid nucleation score
70 | NVSLVTVWWDNHY | inactive
71 | NVVWIYTIFRGVCFGYRRWA | inactive
72 | NVYFGRYFI | inactive
73 | NWEFDSNAILDSMLVMNRLT | inactive
74 | NWFTMSNFMFYRTFCFIYSS | inactive
75 | NWHDYSSGVGLKIRGECMNV | inactive
76 | NWNSSHLNREYTRHFSGMMV | inactive
77 | NWSLSKSRHIPLGTCRGISY | -0.201 ± 0.84
78 | NWSTIECMYMASVVLNARFG | inactive
79 | NYFGPGKQWPID | inactive
80 | NYGGFKDFG | 1.51 ± 0.088
81 | NYLGWPDIKCHGYVDSFLFV | inactive
82 | NYLKFCFSCRCIVLSRTVSW | inactive
83 | NYLRSVLMASGWYWILCIHF | inactive
84 | NYPLRFLGKLAAT | inactive
85 | NYPSYSMHNDIFYAFNFSIS | 2.17 ± 0.084
86 | NYSSAQEYKVSQERIS | inactive
87 | NYVVIPRFMYLVQIYLKVFW | -0.064 ± 0.8
88 | NYWEIEYGVAGCSFLEGMRH | inactive
89 | PAKPGL | inactive
90 | PARGLDQEMSSKVFMRGYLA | inactive
91 | PCFLMGPVIPIVFALYKILV | inactive
92 | PCRKMIQKIVQM | inactive

Row | Substance | amyloid nucleation score
93 | PDAVTILGGVYHVVQSWG | inactive
94 | PDGTQINFN | inactive
95 | PDLIDVFGE | inactive
96 | PDLRLMVVCASYPGSATRAM | inactive
97 | PECFVTGIRGTSCCRESVD | inactive
98 | PEEDRFLTQSPMLRFIITHM | inactive
99 | PEKMFPSPVTATRFANCVL | inactive
100 | PEPHLKSEKYNCSGDWPLPL | inactive
101 | PFAEQRRL | inactive
102 | PFCVGIQFDSEKPLVYFNLL | inactive
103 | PFFCYWVTMKKVIFDTGVFA | inactive
104 | PFGGMVLLILNDAFSMVYVS | inactive
105 | PFVFTLNDQCGGIRSLICVL | inactive
106 | PGCAAWRRSYVS | inactive
107 | PGDNIYILMGVYKGILWWAE | inactive
108 | PGHIYVML | inactive
109 | PGLRVNYFRGESLDVYIVEE | 2.14 ± 0.071
110 | PGSFNLILVTYIGLLQKLLH | 0.993 ± 0.16
111 | PHAYTVIDSSRFRPKERLCG | inactive
112 | PHCPELEQQVKCGTS | 0.178 ± 0.26
113 | PHRFYYYWYSWCFILSNSCQ | inactive
114 | PKALVFNLEDDLQGIWSVT | 2.1 ± 0.079
115 | PKIVYLLAFIVKIELVILTD | inactive

Row | Substance | amyloid nucleation score
116 | PKSYRSGSAVFLGFVSWYRW | inactive
117 | PLFWNGSC | inactive
118 | PLKCGFGPACPDFYIVEGGK | inactive
119 | PLRVRNQYRRLMISANQPDW | inactive
120 | PLSNNKVVWWYYL | inactive
121 | PLVYLGSLSGDQHWLYFSKE | inactive
122 | PMERGMCLMLGSLVG | 0.942 ± 0.093
123 | PMQTSNLNYCVCYCCAVRTF | 0.88 ± 0.34
124 | PNCLMS | inactive
125 | PNIMCYLVAMCVGLKFPARW | inactive
126 | PNNSLETTYFRVTWSFE | inactive
127 | PNWNYSSLGQTSGQSSRHTS | inactive
128 | PNYPDLYHFLICSLCSSFVT | 1.84 ± 0.076
129 | PPRLTS | inactive
130 | PRCARYYSKLFFCFSDLFLS | 0.233 ± 0.25
131 | PRCDYYQ | inactive
132 | PRIQKSWVGAM | inactive
133 | PRIRD | inactive
134 | PRMRA | inactive
135 | PRQTVISASQPDLNIRGFLC | inactive
136 | PSGHV | inactive
137 | PSINWASVTVLGCAHSNFRC | 2.29 ± 0.064
138 | PTDDGLSNRMKQMSGHRVLH | inactive

Row | Substance | amyloid nucleation score
139 | PTDIGGNPAGPGEFLIGTGW | inactive
140 | PTNWLVFYFCSGYAFNSFED | 3.31 ± 0.074
141 | PTSFQYRCVSI | inactive
142 | PTTKYFLYNIYSFV | 2.02 ± 0.079
143 | PVARRVMDYKAGSRV | inactive
144 | PVDKRTSTAVDRFARAMNCQ | inactive
145 | PVECLDNDQGFLWPEVRVRG | inactive
146 | PVFLCSLLLVPKANSIPGK | inactive
147 | PVGRKLTTFRVNTCLLGYFK | inactive
148 | PVKMGVVLCNKWIYSKGTKN | inactive
149 | PVLNAAVHDNFFTADHIRKK | inactive
150 | PVLSRITFSNSSDRI | inactive
151 | PVVLLSWELMILLWVNSFAL | inactive
152 | PVVQCNLFFVMVYTLGIRCV | -0.579 ± 0.98
153 | PYESHDEGQGNATM | inactive
154 | PYFIPYCV | inactive
155 | PYGICNLKF | inactive
156 | PYGLLQFNG | inactive
157 | PYIRNYSCSGSNQYLWDTSD | inactive
158 | PYLLAVNRGESSSSVWLMPM | inactive
159 | PYSNTKGANELQSYRRYVVS | inactive
160 | PYSTFLLCQGLTNYMYSSMS | inactive
